Article PMC3295773

Legend:
[1] = target: complexin 2 (pig (endogenous in boar sperm)); experiment: SDS-resistant complexes on SDS-PAGE, Western blot (bands of the same size); whole sperm lysate, remaining head fraction and mixed vesicles of boar sperm treated with bicarbonate and 5 uM Ca2+ ionophore A23187; 35 ug crude protein a lane; non-reducing (RT, no reducing agent) or reducing (100 C, 10 min, 0.1 M DTT) conditions
[2] = target: complexin 2 (pig (endogenous in boar sperm)); experiment: SDS-resistant complexes on SDS-PAGE, Western blot (bands of the same size); boar sperm incubated with bicarbonate (with or without Ca2+ ionophore), lysed in 1% Triton X-100 on ice, sucrose gradient fractions 1-13; non-reducing SDS-PAGE; blots for complexin 1/2, syntaxin 3, SNAP 23, VAMP 2, syntaxin 1B, VAMP 3
[3] = target: complexin 2 (pig (endogenous in boar sperm)); experiment: SDS-resistant complexes on SDS-PAGE, Western blot (bands of the same size); membrane cavitates of bicarbonate-capacitated boar sperm pre-incubated with 0-4 mM CaCl2 and 5 uM Ca2+ ionophore at 37 C for 20 min; non-reducing conditions; blot for complexin 1/2; most complexin left the 95 kDa complex as Ca2+ rose

Measured: stoichiometry N

complexin 2 (natural protein)
2: all assays above
